The record followed here is patent US9650648.

Common to all, as to assay: cell_activity
Data set [1] concerns ZFN 36004 (KLF1 exon 1) (synthetic). As to conditions: pair with 36021; CD34+ cells; 2.2X gamma mRNA.
Data set [2] deals with TALEN 101291 (BCL11A exon 2) (synthetic). As to conditions: pair with 101292; K562, Cel-I.
The subject of data set [3] is ZFN 44947 (BCL11A-XL) (synthetic). To be noted: pair with 44946; K562.
The subject of data set [4] is TALEN 102315 (gamma globin promoter) (synthetic). To be noted: pair with 102320; K562, Cel-I.
The subject of data set [5] is ZFN 34360 (gamma globin -175) (synthetic). As to conditions: pair with 34363; K562, Cel-I.
In data set [6] the test system is ZFN 34539 (gamma globin -110) (synthetic). To be noted: pair with 34574; CD34+ cells; 5.38X gamma mRNA.
The test system of data set [7] is ZFN 43852 (gamma globin -110) (synthetic). As to conditions: pair with 43865; CD34+ cells.
Data set [8] deals with TALEN 102566 (gamma globin -110) (synthetic). As to conditions: pair with 102568; CD34+ cells, MiSeq; 6.25X gamma mRNA.
For data set [9], the system named is ZFN 43545 (beta-globin IVS1.1) (synthetic). To be noted: pair with 43544; CD34+ cells.
Data set [10] deals with TALEN 102320 (gamma globin promoter) (synthetic). As to conditions: pair with 102315; K562, Cel-I.
In data set [11] the test system is ZFN 36071 (KLF1 exon 2) (synthetic). As to conditions: pair with 36085; CD34+ cells; 3.17X gamma mRNA.
Data set [12] concerns ZFN 34678 (BCL11A exon 4) (synthetic). As to conditions: pair with 34642; CD34+ cells; 3.52X gamma mRNA.
For data set [13], the system named is ZFN 31160 (gamma globin -175) (synthetic). As to conditions: pair with 34365; K562; 45.22% in CD34+; 1.63X gamma mRNA.
Data set [14] concerns ZFN 34642 (BCL11A exon 4) (synthetic). As to conditions: pair with 34678; CD34+ cells; 3.52X gamma mRNA.
Data set [15] concerns ZFN 34398 (gamma globin -175) (synthetic). As to conditions: pair with 34400; K562, Cel-I.
The test system of data set [16] is ZFN 34363 (gamma globin -175) (synthetic). To be noted: pair with 34360; K562, Cel-I.
Data set [17] concerns ZFN 44904 (BCL11A-XL) (synthetic). To be noted: pair with 44905; K562.
For data set [18], the system named is TALEN 101292 (BCL11A exon 2) (synthetic). To be noted: pair with 101291; K562, Cel-I.
Data set [19] concerns TALEN 102314 (gamma globin promoter) (synthetic). To be noted: pair with 102318; K562, Cel-I; 2.14X gamma mRNA in CD34+.
In data set [20] the test system is ZFN 43544 (beta-globin IVS1.1) (synthetic). To be noted: pair with 43545; CD34+ cells.
The test system of data set [21] is ZFN 36085 (KLF1 exon 2) (synthetic). To be noted: pair with 36071; CD34+ cells; 3.17X gamma mRNA.
In data set [22] the test system is ZFN 44945 (BCL11A-XL) (synthetic). As to conditions: pair with 44944; K562.
Data set [23] relates to ZFN 39172 (BCL11A exon 2) (synthetic). To be noted: pair with 39145; CD34+ cells; 3.65X gamma mRNA.
Data set [24] concerns ZFN 45148 (BCL11A exon 2) (synthetic). As to conditions: pair with 39145; K562; printed as 41548 in Table 1B, 45148 in Table 1A.
For data set [25], the system named is ZFN 45147 (BCL11A exon 2) (synthetic). As to conditions: pair with 39145; K562; printed as 41547 in Table 1B, 45147 in Table 1A.
Data set [26] has as its system ZFN 44642 (BCL11A exon 2) (synthetic). As to conditions: pair with 39145; K562.
The subject of data set [27] is ZFN 43490 (BCL11A exon 2) (synthetic). As to conditions: pair with 39145; K562.
Data set [28] concerns ZFN 44946 (BCL11A-XL) (synthetic). To be noted: pair with 44947; K562.
The test system of data set [29] is ZFN 44944 (BCL11A-XL) (synthetic). To be noted: pair with 44945; K562.
Data set [30] concerns TALEN 102321 (gamma globin promoter) (synthetic). As to conditions: pair with 102316; K562, Cel-I.
Data set [31] concerns ZFN 39145 (BCL11A exon 2) (synthetic). To be noted: pair with 39172; CD34+ cells; 3.65X gamma mRNA.
Data set [32] deals with ZFN 44493 (BCL11A exon 2) (synthetic). As to conditions: pair with 39172; K562.
For data set [33], the system named is ZFN 44490 (BCL11A exon 2) (synthetic). As to conditions: pair with 39172; K562.
For data set [34], the system named is ZFN 45081 (BCL11A exon 2) (synthetic). As to conditions: pair with 39172; K562.
Data set [35] concerns ZFN 44489 (BCL11A exon 2) (synthetic). To be noted: pair with 39172; K562.
Data set [36] concerns TALEN 102316 (gamma globin promoter) (synthetic). To be noted: pair with 102321; K562, Cel-I.
Data set [37] deals with ZFN 34365 (gamma globin -175) (synthetic). As to conditions: pair with 31160; K562; 45.22% in CD34+; 1.63X gamma mRNA.
In data set [38] the test system is ZFN 34400 (gamma globin -175) (synthetic). To be noted: pair with 34398; K562, Cel-I.
In data set [39] the test system is TALEN 101301 (BCL11A exon 4) (synthetic). As to conditions: pair with 101304; CD34+ cells; 2.31X gamma mRNA.
Data set [40] concerns ZFN 44911 (BCL11A-XL) (synthetic). As to conditions: pair with 44910; K562.
In data set [41] the test system is ZFN 36021 (KLF1 exon 1) (synthetic). As to conditions: pair with 36004; CD34+ cells; 2.2X gamma mRNA.
Data set [42] concerns ZFN 44889 (BCL11A-XL) (synthetic). To be noted: pair with 44888; K562.
Data set [43] deals with TALEN 102568 (gamma globin -110) (synthetic). As to conditions: pair with 102566; CD34+ cells, MiSeq; 6.25X gamma mRNA.
Data set [44] concerns ZFN 34574 (gamma globin -110) (synthetic). As to conditions: pair with 34539; CD34+ cells; 5.38X gamma mRNA.
The test system of data set [45] is ZFN 43865 (gamma globin -110) (synthetic). As to conditions: pair with 43852; CD34+ cells.
Data set [46] concerns ZFN 44910 (BCL11A-XL) (synthetic). To be noted: pair with 44911; K562.
Data set [47] deals with TALEN 102318 (gamma globin promoter) (synthetic). To be noted: pair with 102314; K562, Cel-I; 2.14X gamma mRNA in CD34+.
Data set [48] concerns ZFN 44905 (BCL11A-XL) (synthetic). As to conditions: pair with 44904; K562.
Data set [49] deals with TALEN 101304 (BCL11A exon 4) (synthetic). As to conditions: pair with 101301; CD34+ cells; 2.31X gamma mRNA.
Data set [50] relates to ZFN 44888 (BCL11A-XL) (synthetic). To be noted: pair with 44889; K562.

Sequence “GGGAAGGGGCCCAGGGCGGTCAGTGTGC (double strand) [KLF1 exon 1 36004 site]” came in with an activity in [1] of 44.4 % indels.

In data set [2], “CTGTGGGCAGTGCCAGATGA (double strand) [BCL11A exon 2 TALEN 101291 site]” had an activity of 0.8 % indels.

“CTCACCAGGCACATGAAAACGCATGGCC (double strand) [BCL11A-XL 44947 site]”: the activity in data set [3] stood at 34.2 % indels.

“GTATCCTCTTGGGGGCCC (double strand) [HBG TALEN 102315 site]” displayed an activity in [4] of 47.9 % NHEJ. As for “TTGCATTGAGATAGTGTGGGGAAGGGGC (double strand) [HBG -175 34360 site]”, the activity in [5] was 39 % NHEJ. Regarding “TGGTCAAGGCAAGGCTGGCCAACCCATG (double strand) [HBG -110 34539/43852 site]”, the results for the activity in [6] and in data set [7] were 45.7 % NHEJ and 56.1 % NHEJ, respectively. “GTTGGCCAGCCTTGCCTTGAC (double strand) [HBG -110 TALEN 102566 site]”: the activity in data set [8] was determined as 51.4 % NHEJ. As for “ATCAAGGTTACAAGACAGGTTTAAGGAG (double strand) [HBB IVS1.1 43545 site]”, the activity in data set [9] was 52.6 % NHEJ. In [10], “ATATTTGCATTGAGATAGT (double strand) [HBG TALEN 102320 site]” had an activity of 47.9 % NHEJ.

In data set [11], “GGTGAGGAGGAGATCCAGGTCCCAGGTG (double strand) [KLF1 exon 2 36071 site]” returned an activity of 22.6 % indels. The sequence “ATATTGCAGACAATAACCCCTTTAACCT (double strand) [BCL11A exon 4 34678 site]” gave an activity in data set [12] of 82.2 % indels. “TATTTGCATTGAGATAGTGTGGGGAAGG (double strand) [HBG -175 31160 site]” displayed an activity in data set [13] of 53 % NHEJ. “ATCCCATGGAGAGGTGGCTGGGAAGGAC (double strand) [BCL11A exon 4 34642 site]”: the activity in data set [14] was 82.2 % indels. For the sequence “TTTGCATTGAGATAGTGTGGGGAAGGGG (double strand) [HBG -175 34398 site]”, the activity in data set [15] stood at 54 % NHEJ. As for “ATCTGTCTGAAACGGTCCCTGGCTAAAC (double strand) [HBG -175 34363 site]”, the activity in [16] came out at 39 % NHEJ.

With “TGGACAGTGAGATTGCTACAGTTCTTGA (double strand) [BCL11A-XL 44904 site]”, the activity in data set [17] worked out at 25.4 % indels. Sequence “CTCGATAAAAATAAGAATGT (double strand) [BCL11A exon 2 TALEN 101292 site]” gave an activity in data set [18] of 0.8 % indels. Take “GTATCCTCTTGGGGGCC (double strand) [HBG TALEN 102314 site]”: in data set [19], the activity was determined as 41.6 % NHEJ. As for “AATCTGCCCAGGGCCTCACCACCAACTT (double strand) [HBB IVS1.1 43544 site]”, in data set [20], the activity worked out at 52.6 % NHEJ.

In data set [21], “CTTCTCGGGCCCGGAGCCCGGTGGCGCG (double strand) [KLF1 exon 2 36085 site]” gave an activity of 22.6 % indels. As for “AAGCTCACCAGGCACATGAAAACGCATG (double strand) [BCL11A-XL 44945 site]”, in data set [22], the activity was 24 % indels. For the sequence “CTCCAGAAGGGGATCATGACCTCCTCAC (double strand) [BCL11A exon 2 site, SEQ 160]”, the activity was 69.8 % indels in [23]; 42.3 % indels in [24]; 35.6 % indels in [25]; 38.5 % indels in [26]; 19.9 % indels in data set [27]. Take “CTACTCTGGGCACAGGCATAGTTGCACA (double strand) [BCL11A-XL 44944/44946 site]”: the activity in [28] was determined as 34.2 % indels; in data set [29], 24 % indels. The sequence “ATATTTGCATTGAGATAG (double strand) [HBG TALEN 102321 site]” registered an activity in [30] of 46.6 % NHEJ.

Regarding “CCCAACGGGCCGTGGTCTGGTTCATCAT (double strand) [BCL11A exon 2 site, SEQ 170]”, the activity in [31] is 69.8 % indels; in data set [32], 25.7 % indels; in data set [33], 29.4 % indels; in data set [34], 27.8 % indels; in [35], 24.3 % indels. In the case of “GTATCCTCTTGGGGGCCCC (double strand) [HBG TALEN 102316 site]”, the activity in [36] was found to be 46.6 % NHEJ. Consider “CTGTCTGAAACGGTCCCTGGCTAAACTC (double strand) [HBG -175 34400/34365 site]”, for which the values for the activity in data set [37] and in data set [38] were 53 % NHEJ and 54 % NHEJ, respectively. Regarding “ATGTCCTTCCCAGCCACCTCT (double strand) [BCL11A exon 4 TALEN 101301 site]”, in [39], the activity was 35.7 % indels. Regarding “GCCACACGGGCGAAAGGCCTTATAAATG (double strand) [BCL11A-XL 44911 site]”, in [40], the activity turned out to be 36.4 % indels.

“ACACACAGGATGACTTCCTCAAGGTGGG (double strand) [KLF1 exon 1 36021 site]” displayed an activity in [41] of 44.4 % indels. “CTCACTGTCCACAGGAGAAGCCACACGG (double strand) [BCL11A-XL 44889 site]” showed an activity in data set [42] of 35.1 % indels. The sequence “TTGGTCAAGTTTGCCTTGTCA (double strand) [HBG -110 TALEN 102568 site]” registered an activity in data set [43] of 51.4 % NHEJ. For “GCCTTGACAAGGCAAACTTGACCAATAG (double strand) [HBG -110 34574/43865 site]”, the activity came out at 45.7 % NHEJ in data set [44] and 56.1 % NHEJ in data set [45].

“CTCCTGTGGACAGTGAGATTGCTACAGT (double strand) [BCL11A-XL 44910 site]” yielded an activity in data set [46] of 36.4 % indels. Take “ATATTTGCATTGAGATAGTGT (double strand) [HBG TALEN 102318 site]”: the activity in [47] is 41.6 % NHEJ.

Consider “GAGAAGCCACACGGGCGAAAGGCCTTAT (double strand) [BCL11A-XL 44905 site]”, for which the activity in data set [48] was determined as 25.4 % indels. In the case of “GTTAAAGGGGTTATTGTCT (double strand) [BCL11A exon 4 TALEN 101304 site]”, the activity in data set [49] turned out to be 35.7 % indels. With “TTGCTACAGTTCTTGAAGACTTTCCCAC (double strand) [BCL11A-XL 44888 site]”, the activity in data set [50] is 35.1 % indels.
